Test: IE-HPLC analysis of rhGH deamidation before/after spray-drying
Type: physicochemical
Conditions: 130° C.
Experimental: Recombinant human growth hormone in sodium carbonate buffer was dissolved in water. Sodium hyaluronate was present in the composition at a concentration of 2 mg/mL and rhGH at a concentration of 1 mg/mL. The weight ratio protein/sodium hyaluronate was equal to 0.5.
The composition was then spray dried with an inlet temperature of 130° C.
An ion-exchange high performance liquid chromatography (IE-HPLC) analysis was performed to evaluate the […] of rhGH and a size-exclusion chromatography high performance liquid chromatography (SEC-HPLC) analysis was performed to evaluate the aggregation of this protein.

With rhGH: recombinant human growth hormone the “Stability in the spray-drying process” value was “degraded”.
